Reference: the nanobody polyreactivity screen of Harvey et al. (2022)

Experiment: yeast display, Sf9 membrane polyspecificity reagent, FACS + sequencing; frameworks hold sequencing errors
Summary of the method: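 Sorting gates, low and high (top ~1%), were placed on anti-HA fluorescence to track expression and on streptavidin fluorescence to track reagent binding. A clone's polyreactivity label is taken from the gate it came out of. The reagent was 10% biotinylated, detergent-solubilized Sf9 membrane, applied for 1 hour at 4 °C to galactose-induced yeast display cells.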
For “QVQLVESGGGLVQAGGSPRLSCAASGRIFGAYAMGWYRQAPGQERELVAGNRSVGSTNYADSVKGRFTISRDNAKNTVYFQMNSLKPEDTAVYYCAARLWHLSYAGQGGDYWGQGTQVTVSS”, the “polyreactivity (PSR sort gate)” value was “low polyreactivity”. In the case of “QVQLVESGGGLVQAGGSRRISCAASGITFKWYAMGWYRQAPGKERELVAAISWSTGSTYYADSVKGRFTISRDNAKNTVYLQMNSLKPEDTAVSDCAADLQLPNLGDSYDYWGQGTQVTVSS”, the “polyreactivity (PSR sort gate)” value is reported as “high polyreactivity”. In the case of “QVQLVESGGGLVQAGGSRRLICAASGRIYYYMGWYRQEPGQERELVAASTSSGVSTYYADSVKGRFTISRDNAKNTVDLQMNSLKPEDTAVYYCAAERVYIFWFTHEIFKYWGQGTQVTVSS”, the “polyreactivity (PSR sort gate)” value is reported as “high polyreactivity”. With “QVQLVESGGGLVQAGGSRRLRCAASGRIFKNYAMGWYRQAPGKERELVAAMTWSVGSTYYADSVKGRFTISRDNAKKTVYLQMNSLKPEDTAVNYCAARRSGTYRYRYEYWGQGSQVTVSS” the “polyreactivity (PSR sort gate)” value was “low polyreactivity”. For “QVQLVESGGGLVQAGGSRRLSCAASGFTFYWYAMGWYRQAPGKERELVAAITRGGRTYYADSVKGRFTISRDNAKNTVYLQMNSLKPEDTAVYYCNAVEFTIAWCYTMDYWGQGIQVTVSS”, the “polyreactivity (PSR sort gate)” value was “high polyreactivity”. With “QVQLVESGGGLVQAGGSRRLSCAASGGTFYYYAMGWYRQAPGKERELVAAIRGSGGSTYYADSVKGRFPISRDNAKNTVYLQMNSLKPVDTAVYYCATRGGYPKGYGYLAFNYWGQGTQVTVSS” the “polyreactivity (PSR sort gate)” value was “high polyreactivity”. In the case of “QVQLVESGGGLVQAGGSRRLSCAASGIIFAYYAMGWYRQAPGKERELVASISSTGGSTYYADSVKGRFTISRDNAKNTVYLQMNSLKPEDTAVYYCAVDGLPPKDALHLYYYWGQVTQVTVSS”, the “polyreactivity (PSR sort gate)” value is reported as “low polyreactivity”. In the case of “QVQLVESGGGLVQAGGSRRLSCAASGLIFDKAMGWYRQAPGKQREFVAAITYSTGSTYYADSVKGRFTISRDNAKNTVYLQMNSLKPEDTAVYYCAKDGSGHGTERDYWGQGTQVTVSS”, the “polyreactivity (PSR sort gate)” value is reported as “low polyreactivity”. In the case of “QVQLVESGGGLVQAGGSRRLSCAASGRIICVYAMGWYRQAPGNERDLVAAITIGGSTYYADSVKGRFTISRDNAMNTFYLQMNSLKPEDTAVYYCNRRYNWYLHHYDYWGQGTQVTVSS”, the “polyreactivity (PSR sort gate)” value is reported as “high polyreactivity”. In the case of “QVQLVESGGGLVQAGGSRRLSCAASGRSFYGNAMGWYRQAPGTERECVAGISWRGGRTYYADSVKGRFTISRDNANNTVYLQMNSLKPEETAVYYCAASAGYRGRSGYEYWGQGTQVTVSS”, the “polyreactivity (PSR sort gate)” value is reported as “high polyreactivity”. In the case of “QVQLVESGGGLVQAGGSRRLSCAASGRTFYYAMGWYRQAPGKETQLVATITSGGGSTYYADSVKGRFSISRDNAKNTVYLQMNSLKPEDTAVYYCAADYKSSPPLPEYDYWGQGTQVTVSS”, the “polyreactivity (PSR sort gate)” value is reported as “high polyreactivity”. With “QVQLVESGGGLVQAGGSRRLSCAASGSNFRNNAIGWYRQAPGKERELVAVISRRSGNTYYADSVKGRFTISRDNGKKTVYLPMHSLKPEDTAVYYCASDYCKSSIRGDYWGQGTQVTVSS” the “polyreactivity (PSR sort gate)” value was “low polyreactivity”. With “QVQLVESGGGLVQAGGSRRLSCAASGSTFRINAMGWYRQAPGKERELVADINSGGNTTYADSVKGRFTISRDNAKNTVYLQMNSLKPEDTAVYYCAADPVFDLWEFLLDYGYDYWGQGTQVTVSS” the “polyreactivity (PSR sort gate)” value was “low polyreactivity”. With “QVQLVESGGGLVQAGGSRRLSCAASGSTFYGYAMGWYRQAPGKEREFVAAITTSGGSTYYADSVKGRFTISRDNAKNTVYLQMNSLKPEDTAVYYCARDLYTEYRWGRLTYDYWGQGTQVTVSS” the “polyreactivity (PSR sort gate)” value was “low polyreactivity”. For “QVQLVESGGGLVQAGGSRRLSWAASGSTFPRNAMGWYRQAPGKERELVAAISSGGSTYYADSVKWRFTISRDNAKNTVYLQMNSLKPEDTAVYYCAARLYWPIIVVDLYGYDYWGEGTQVTVSS”, the “polyreactivity (PSR sort gate)” value was “low polyreactivity”. In the case of “QVQLVESGGGLVQAGGSRRLTCAASGFTFEYYAMGWYRQAPGTERELVAAISYSGSSTYYADSVKGRFTISRDNAKNTVYLQMNSLKPEDTAVYYCAARAVSRRFDYWGQGTQVTVSS”, the “polyreactivity (PSR sort gate)” value is reported as “high polyreactivity”. With “QVQLVESGGGLVQAGGSRSLSCAASGRIFTVYAMGWYRQAPGKERELVAAISGRGGRTTYADSVKGRFTISRDNAKNTVFLQMNSLKPEDTAVYYCAAAYLRYVSTQYHYDYWGEGTQVTVSS” the “polyreactivity (PSR sort gate)” value was “low polyreactivity”. In the case of “QVQLVESGGGLVQAGGSVRLICAASGSIFYTYAMGWYRQAPGKERELVAAISKRGGSTYDADSVKGRFTISRDNAKNTVYLQMNSLKPEDTAVYYCAADTQHVYGSNFYYWGQGTQVTVSS”, the “polyreactivity (PSR sort gate)” value is reported as “high polyreactivity”. In the case of “QVQLVESGGGLVQAGGSVRLSCAASGFIFWYSAMGWYRQAPGKERELVAAISGTGGTTYYADSVKGRFTISRDNAKNTVYLQMNSLKPEDTAVYYCNFRYDSRRTAIGYAYWGQGTQETVSS”, the “polyreactivity (PSR sort gate)” value is reported as “low polyreactivity”. For “QVQLVESGGGLVQAGGSVRLSCAASGRIFRHNTRGWYRQAPGKERELVAAITFSDGNTYYADSVKGRFTISRDNAKNTVYLQMNSLKPEDTAVYYCNAGYSYGVSYAEGGYWGQGTQVTVSS”, the “polyreactivity (PSR sort gate)” value was “low polyreactivity”. In the case of “QVQLVESGGGLVQAGGSVRLSCAASGRTFYYNAMGWYRQAPGKERELVAAISWSGGSTYYADSVKGRFTISRDNAKNTVYLQMNSLKPEDTAVYYCAARSRYYHFDYWGQGTQVTVSS”, the “polyreactivity (PSR sort gate)” value is reported as “high polyreactivity”. For “QVQLVESGGGLVQAGGSVRLSCAASGSIFTGYAMGWYRQAPGKERELVAAISRSSGSTYYADSVKGRFTISRDNAKNTVYLQMNSLKPEDTAVYYCNAYSKYRSGRLYWMGYWGQGTQVTVSS”, the “polyreactivity (PSR sort gate)” value was “high polyreactivity”. In the case of “QVQLVESGGGLVQAGGTLLLTCAASGFIFDIYAMGWSRPAPGKERELVAAITWNSGSTHYADSVKGRFTISRDTAKNTVYLQMNRLKPEDTAVYYCAADEVTYAYYPYDYWGQGTQVTVSS”, the “polyreactivity (PSR sort gate)” value is reported as “low polyreactivity”. With “QVQLVESGGGLVQAGGTLRISCAASGITINYNAMGWYRQAPGKEMELVAAITRSGGSTNYADSVKGRFTISRDNAKNTVYLQMNSLKPEDTAVYYCAKGHLYAGHRHYAYGYWGQGTQVTVSS” the “polyreactivity (PSR sort gate)” value was “low polyreactivity”. With “QVQLVESGGGLVQAGGTLRISCAASGSIFWYYAMGSYRQAPGKERELVAAISKSGGSTYYADSVKVRFTISRDNAKNTVYLQMNSLKQEDTAVYYCAKYGPVIDGVDYWGQGTQVTVSS” the “polyreactivity (PSR sort gate)” value was “low polyreactivity”. In the case of “QVQLVESGGGLVQAGGTLRLICAASGSTLYWNAMGLYRQAPGKQRELVAGISIGGRTNYADSVKGRFTISRDNAKNTVYLQMISLKPEDTAVYYCNAENTYLGSRYRPYNYWGQGTQVTVSS”, the “polyreactivity (PSR sort gate)” value is reported as “low polyreactivity”. For “QVQLVESGGGLVQAGGTLRLICAATGRTFDFNAMGWYRQAPGKERELVAAITESGGSTYYADSVKGRFTISRDNAKNTVYLQMNSLKPEDTAVYYCAVAGNYYRDYPEVSYFSIYNYWGQGTQVTVSS”, the “polyreactivity (PSR sort gate)” value was “low polyreactivity”. In the case of “QVQLVESGGGLVQAGGTLRLSCAASGFIFDWNTKGWYRQAPGKERELVAAITESSGSTYYADSVKGRFTISRDNAKNTVYLQMNSLKPEDTAVYYCAAELDVYVSIGSRFHFDYWGQGTQVTVSS”, the “polyreactivity (PSR sort gate)” value is reported as “low polyreactivity”. With “QVQLVESGGGLVQAGGTLRLSCAASGFIFENYAMGWYRQAPGKERELVAAISSSGGSTYYADSVKGRFTISRDNAKNTVYLQMNSLKPEDTAVYYCAKDYAPSATKLHYWGQGTQVTVSS” the “polyreactivity (PSR sort gate)” value was “low polyreactivity”. In the case of “QVQLVESGGGLVQAGGTLRLSCAASGFLFVFYDMGWYRQAPAKERELVAGITRNDGSTYYADSVKGRFKISRDNAKNTVYLLMNSLKPEDTAVYYCAADRVRRNDKLAYDYWGQGTQVTVSS”, the “polyreactivity (PSR sort gate)” value is reported as “low polyreactivity”. For “QVQLVESGGGLVQAGGTLRLSCAASGFTFGYYAMGWYRPAPGKERELVAAISSRGGTTYYADSVKGRFTISRDNAKNTVYLQMNSLKPEDTAVYYCAKDSFRNIYNYWGQGTQVTVSS”, the “polyreactivity (PSR sort gate)” value was “high polyreactivity”.
